Source: patent publication WO2009055074A2 (dated 2009)
Where a chain is given by its changes, count along the chain named.

B1: S1R3A1_DP47_1A6 (scFv, V domains shown)
VH: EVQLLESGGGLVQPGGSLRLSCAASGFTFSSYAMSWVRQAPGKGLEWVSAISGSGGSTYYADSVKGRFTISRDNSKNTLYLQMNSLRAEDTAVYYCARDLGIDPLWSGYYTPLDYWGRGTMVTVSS
VL: HVILTQPPSASGTPGQRVTISCSGSSSNIGSNSVSWYQQLPGTAPKLLMYTNNQRPSGVPDRFSGSKSGTSASLAISGLQSEDEADYYCATWDASLNTWVFGGGTKVTVLG
notes: scFv (one chain), soluble from the bacterial periplasm in the screening; also called Her2_S1R3A1_DP47_1A6
B2: S1R2A_CS_1D3 (scFv, V domains shown)
VH: EVQLVQSGAEVKKPGASVKVSCKASGYSFTAFYIHWVRQAPGQGLEYLGWIDPNTGATKYAQRFQGRVIMTWDTSITTATMELSRLTSDDSAVYYCVRDLREWGYELSVEYWGRGTLVTVSS
VL: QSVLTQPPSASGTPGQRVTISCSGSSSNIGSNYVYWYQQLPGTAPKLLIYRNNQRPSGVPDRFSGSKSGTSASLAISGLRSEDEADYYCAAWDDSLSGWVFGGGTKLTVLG
B3: S1R3B2_BMV_1H5 (scFv, V domains shown)
VH: EVQLVQSGGGLVRPGGSLRLSCAASGFSFSDYYMTWIRQIPGKGLEWVAVIWNDGSDRYYADSVKGRFTISRDNSKNTLFLQMSSLRDEDTALYYCVRGGPTASSGFDYWGRGTLVTVSS
VL: SSELTQPASVSGSPGQSITISCTGTSSDVGGYNYVSWYLQHPGKAPKLMIYEGSKRPSGVSNRFSGSKSGNTASLTISGLQAEDEADYYCSSYTTRSTRVFGGGTKLTVLG
notes: also called Her2_S1R3B2_BMV_1H5
B4: S1R3B1_BMV_1A1 (scFv, V domains shown)
VH: EVQLVQSGAEVKEPGASVKVSCKASGYDFSNYGFSWVRQAPGQGLEWMGWISSYNGYTNYAQRLQGRVTMTTDTSTSTAYMELRSLRSDDTAVYYCARDRGLGNWYFDLWGQGTLVTVSS
VL: B3 VL with S1Q, E3V, L39Q
notes: scFv (one chain), soluble from the bacterial periplasm in the screening; also called Her2_S1R3B1_BMV_1A1
B5: S1R3B1_BMV_1G11 (scFv, V domains shown)
VH: QVQLVQSGGGLVQPGGSLRLSCAASGFTFSTYAMSWARQAPGKGLEWVSSISGDGGRILDADSAKGRFTISRDNSKNTLYLQMNGLRVEDTALYYCARADGNYWGRGTMVTVSS
VL: B3 VL with S1Q, E3V, L39Q
notes: scFv (one chain), soluble from the bacterial periplasm in the screening; also called Her2_S1R3B1_BMV_1G11
B6: S1R3A1_BMV_1G4 (scFv, V domains shown)
VH: QVQLVESGAEVKKPGASVKVSCKASGYTFTSYDINWVRQAPGQRLEWMGWINAGNGNTKYSQKFQGRVTITRDTSASTAYMELRSLRSDDTAVYYCARGRSYGHPYYFDYWGQGTLVTVSS
VL: B3 VL with S1Q, E3V, L39Q
notes: scFv (one chain), soluble from the bacterial periplasm in the screening; also called Her2_S1R3A1_BMV_1G4
B7: S1R3A1_CS_1B12 (scFv, V domains shown)
VH: QVQLVQSGAEVKKPGASVKVSCQASGYTFSGHYMHLVRQAPGQGLEWMGWIHPTSGGTTYAQKFQGRVVMTRDTSISTAYMELSRLTSDDTAVYYCARMSQNYDAFDIWGQGTMVTVSS
VL: QAVLTQPSSVSGAPGQRVTISCTGSSSNIGAGYDVNWYQQFPGTAPKIIVYGDRPSGAPDRFSGSKSGTSASLAITGLRAEDEADYYCQSWDSRLSSYVFGTGTKVTVLG
notes: scFv (one chain), soluble from the bacterial periplasm in the screening; also called Her2_S1R3A1_CS_1B12
B8: S1R3B2_DP47_1E10 (scFv, V domains shown)
VH: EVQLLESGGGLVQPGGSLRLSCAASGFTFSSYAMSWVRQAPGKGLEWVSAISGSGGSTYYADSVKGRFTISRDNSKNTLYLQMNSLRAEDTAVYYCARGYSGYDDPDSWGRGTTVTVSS
VL: HVILTQPPSTSGTPGQTVTISCSGSSSNIGSHYVYWYQQLPGTAPKLLIYRNNQRPSGVPDRFSGSKSGTSASLAISGLRSEDETDYYCAAWDDSLSGRVFGTGTKLTVLG
notes: also called Her2_S1R3B2_DP47_1E10
B9: S1R3B2_DP47_1E8 (scFv, V domains shown)
VH: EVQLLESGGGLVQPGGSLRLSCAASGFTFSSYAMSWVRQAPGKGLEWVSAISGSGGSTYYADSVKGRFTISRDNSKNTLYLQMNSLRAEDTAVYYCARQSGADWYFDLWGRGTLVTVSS
VL: QAVLTQPSAVSGAPGQRVTISCTGTSSNIGTNYLVHWYQQRPGTAPQLLVSGNNTRPSGVTDRFSVSKSATSASLAITGLQAEDEADYYCQTYDINLRVWVFGGGTKVTVLG
notes: also called Her2_S1R3B2_DP47_1E8
B10: S1R3C1_CS_1A6 (scFv, V domains shown)
VH: EVQLVQSGAEVKKPGESLKISCKGFGYNFRSAWIGWVRQMPGKGLEWMGVIYPGDSDVRYSPSFQGQVTISADKSISTAYLQWSSLKASDTAMYYCTRPVGQWVDSDYWGKGTLVTVSS
VL: QSVLTQPPSASGTPGQRVTISCSGSSSNIGTNTVNWYQQLPGTAPKLLIYTSNQRPSGVPARFSASNSGTSASLAISGLRSEDEADYYCAAWDDKLSGAVFGGGTKLTVLG
notes: also called Her2_S1R3C1_CS_1A6
B11: S1R2C_CS_1H12 (scFv, V domains shown)
VH: EVQLVETGGGLVQPGGSLRLSCAASGFTFSSYGMNWVRQAPGKGLEWVSYISSSGNTIFYADSVKGRFTISRDSAKNSVSLQMNSLRDEDTAVYYCASYYSYYYGMDAWGQGTMVTV
VL: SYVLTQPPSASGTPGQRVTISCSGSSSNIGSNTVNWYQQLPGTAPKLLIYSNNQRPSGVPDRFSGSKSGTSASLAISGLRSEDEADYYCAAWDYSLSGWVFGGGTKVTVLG
B12: S1R3B1_BMV_1H11 (scFv, V domains shown)
VH: EVQLVQSGGGLVKPGGSLRLSCAASGFTFSSYGMHWVRQAPGKGLEWVAGIFYDGGNKYYADSVKGRFTISRDNSKNTLYLQMNSLRAEDTAVYYCARDRGYYYMDVWGKGTTVTVSS
VL: QSVLTQPPSVSGAPGQRVTISCTGRSSNIGAGHDVHWYQQLPGTAPKLLIYGDSNRPSGVPDRFSGSRSGTSASLAITGLQAEDEADYYCQSYDSSLRGSVFGGGTKVTVLG
notes: scFv (one chain), soluble from the bacterial periplasm in the screening; also called Her2_S1R3B1_BMV_1H11
B13: S1R3B1_BMV_1A10 (scFv, V domains shown)
VH: QMQLVQSGGGVVQPGRSLRLSCAASGFTFSSYGMHWVRQAPGKGLEWVAVISYDGSIKYYADSVKGRFTISRDNSKNTLYLQMNSLRAEDTGVYYCSKDRYSSGWYSSDAFDIWGRGTMVTVSS
VL: SSELTQDPAVSVALGQTVRITCQGDSLRSYYASWYQQKPGQAPVLVIYGKNNRPSGIPDRFSGSSSGNTASLTITGAQAEDEADYYCHSRDSSGNHVLFGGGTKLTVLG
notes: scFv (one chain), soluble from the bacterial periplasm in the screening; also called Her2_S1R3B1_BMV_1A10
B14: S1R3C1_DP47_1H1 (scFv, V domains shown)
VH: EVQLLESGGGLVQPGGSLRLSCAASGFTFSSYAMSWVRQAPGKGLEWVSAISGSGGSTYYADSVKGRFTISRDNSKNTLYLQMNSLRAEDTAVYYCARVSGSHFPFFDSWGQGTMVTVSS
VL: QSVLTQPPSVSVAPGQTARITCGGDKIGHKSVHWYQQKPGQAPVLLVYDDRKRPSGIPERFSGSNSGNTATLTISRVEAGDEAAYHCQVWDRSSDPYVFGTGTKVTVLG
notes: scFv (one chain), soluble from the bacterial periplasm in the screening; also called Her2_S1R3C1_DP47_1H1
B15: S1R3C1_BMV_1H11 (scFv, V domains shown)
VH: GVQLVESGGGLVKPGGSLRLSCAASGFTFSSYNMNWVRQAPGKGLEWVSAISGSGGSTYYADSVTGRFTISRDNSKNTLYLQMNSLRAEDTAVYYCAKDTSGWYGDGMDVWGRGTLVTVSS
VL: DIQMTQSPSTLSASIGDRVTITCRASEGIYHWLAWYQQKPGKAPKLLIYKASSLASGAPSRFSGSGSGTDFTLTISSLQPDDFATYYCQQYSNYPLTFGGGTKLEIKR
notes: scFv (one chain), soluble from the bacterial periplasm in the screening; also called Her2_S1R3C1_BMV_1H11
B16: S1R3B2_BMV_1G2 (scFv, V domains shown)
VH: QVQLVQSGAEVKKPGSSVKVSCKASGYTFTSYGISWVRQAPGQGLEWMGWISAYNGNTNYAQKLQGRVTMTTDTSTSTAYMELRSLRSDDTAVYYCARVPGVSGSYPDYYYMDVWGKGTLVTVSS
VL: B15 VL
notes: also called Her2_S1R3B2_BMV_1G2
B17: S1R3C1_CS_1D3 (scFv, V domains shown)
VH: QVQLQESGPGLVKPSQTLSLTCGISGDSVSSNSAAWNWIRQSPTRGLEWLGRTYYRSSWYHNYAPSMNSRLTIIADTSKNQFSLQLNSVTPEDTAVYYCASGWAFDVWGRGTLVTVSS
VL: QSVLTQPPSASGSPGQSVTISCTGTSSDVGAYDFVSWYQQHPGKAPKLMIYEVNKRPSGVPDRFSGSKSGNTASLTVSGLQAEDEADYYCSSYAGSKNLLFGGGTKLTVLG
notes: also called Her2_S1R3C1_CS_1D3

How the values were obtained:
[1] = molecular target: T1, extracellular domain (ECD) of Her2 (ErbB2) (human, UniProt P04626 23-652); assay: three rounds of selection and screening ELISA, soluble periplasmic scFv
T1 construct: Target as named in the sentence on the thirty-one scFvs; also called ECD region of Her2

[2] = molecular target: T1, extracellular domain (ECD) of Her2 …; assay: three rounds of selection and screening ELISA, scFv on phage

Binder	binding result [1]	binding result [2]
B1	binds	
B2		binds
B3		binds
B4	binds	
B5	binds	
B6	binds	
B7	binds	
B8		binds
B9		binds
B10		binds
B11		binds
B12	binds	
B13	binds	
B14	binds	
B15	binds	
B16		binds
B17		binds
